Source: patent US20090291899A1 (published 2009)
Where no end group is shown, it is not given here.

Target: T1, recombinant human soluble TNF receptor inhibitor/Fc chimera (rHusTNFRI) (human, UniProt P19438 30-211)
T1 construct: Bought from Prospec-Tany TechnoGene; Only the soluble part stood in the assay; also called TNF-R1; immobilised rHusTNFRI; not shown: Fc part of human IgG1; 6x histidine tag on the Fc part
T1 sequence: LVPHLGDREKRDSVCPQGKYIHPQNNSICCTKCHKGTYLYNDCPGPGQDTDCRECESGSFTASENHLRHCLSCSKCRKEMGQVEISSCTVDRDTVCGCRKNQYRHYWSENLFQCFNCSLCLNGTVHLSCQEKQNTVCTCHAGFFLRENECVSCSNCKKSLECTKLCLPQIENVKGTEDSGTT
Test: solid-phase competition ELISA: unlabelled TNF70-80 against 10 µM biotinylated TNF70-80 on immobilised rHusTNFRI

IC50: ~21 µM | Kd: 90 µM
B1: TNF70-80 (Pro-Ser-Thr-His-Val-Leu-Ile-Thr-His-Thr-Ile-OH) (peptide)
peptide: PSTHVLITHTI-OH
notes: 4; also called Peptide A; TNF mimetic peptide
